Molecular target: T1, rCRISPA (rCRISP1) (Rattus norvegicus, UniProt P12020)
T1 construct: Native rCRISPA (rCRISP1) protein, purified with DANA present; from tissue; host or cells: rat epididymis
T1 sequence (P12020 20-246): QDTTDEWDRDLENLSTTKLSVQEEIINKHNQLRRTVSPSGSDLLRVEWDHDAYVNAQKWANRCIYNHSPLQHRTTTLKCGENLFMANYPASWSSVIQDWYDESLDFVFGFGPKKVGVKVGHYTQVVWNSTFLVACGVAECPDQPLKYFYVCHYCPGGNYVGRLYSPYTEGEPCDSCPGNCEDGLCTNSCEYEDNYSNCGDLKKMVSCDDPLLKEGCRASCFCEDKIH
Assay: Protease activity screen: cleavage of substrate peptides by native rCRISPA (+DANA protocol), measured by fluorescence
Format: biochemical
Conditions: 5 μM substrate peptide, 1 μg enzyme, 100 mM NaCl, 25 mM Tris-Cl, pH 7.5; fluorescence at ten minute intervals for 130 minutes; FIG. 13
Procedure: FIG. 13 is a graph showing rCRISPA (rCRISP1) protease activity (assay conditions: 5 μM substrate peptide, 1 μg enzyme, 100 mM NaCl, 25 mM Tris-Cl, pH 7.5). A. Cleaved peptides A04 (RGARARLG), N08 (RKRRAPLA), N12 (AKRAASQI), N17 (RKRRAVLT), B22 (APQRFGKK), B17 (RQRYGKRS), B23 (RVKRYRQS), H03 (RNKRAVQG). B. Cleaved peptides B20 (PQRFGRNT), C16 (RVLGLKAH), J21 (LRNRAQSG), H07 (RVKRQVRS), H11 (RRLLRAIP), N05 (RARRELAP), H01 (RKKRSTKK), O22 (GGVRGPRV), O16 (AATRRQAV), O23 (KNVAMQKG), G24 (RRKRSTRE), A09 (RMRRYADA), M02 (EKQRIIGG), H17 (NGLRADPM). C. Uncleaved peptides L16 (KTPRWGG), N10 (FYRADQPR), B11 (AAGVAPLS), J03 (PQLHSTGG), C01 (GPQGLLGA), K11 (VIPRSGGS), M07 (GLQRALEI), A01 (WQGGRRKF), H02 (RAKRSVHF), A10 (SAARPAPP), M16 (RSRREADL), A05 (SYRKVLGQ), M18 (VHRDMAAR), C23 (RDAQAHPG), M09 (GSQHIRAE), E19 (RLGREGVQ), D06 (ALAEAMKK).
Native rCRISPA (rCRISP1) protein, purified with DANA present (see Example 4), was screened for the ability to cleave 360 unique peptides using the commercially available peptide substrate set (catalog # PrSS-360-75, JPT Peptide Technologies, Springfield, Va.). […] The substrate peptides cleaved by rCRISPA in this assay are represented by blue and green traces noted in FIG. 13. Peptides that were not cleaved by rCRISPA are also noted in FIG. 13.

| Substance | cleavage of substrate peptide by rCRISPA (rCRISP1) protease activity |
| --- | --- |
| RQRYGKRS [B17, substrate peptide of the commercial peptide substrate set PrSS-360-75, JPT Peptide Technologies] | Cleaved |
| APQRFGKK [B22, substrate peptide of the commercial peptide substrate set PrSS-360-75, JPT Peptide Technologies] | Cleaved |
| RAKRSVHF [H02, substrate peptide of the commercial peptide substrate set PrSS-360-75, JPT Peptide Technologies] | Uncleaved |
| LRNRAQSG [J21, substrate peptide of the commercial peptide substrate set PrSS-360-75, JPT Peptide Technologies] | Cleaved |
| RGARARLG [A04, substrate peptide of the commercial peptide substrate set PrSS-360-75, JPT Peptide Technologies] | Cleaved |
| RRLLRAIP [H11, substrate peptide of the commercial peptide substrate set PrSS-360-75, JPT Peptide Technologies] | Cleaved |
| RVKRQVRS [H07, substrate peptide of the commercial peptide substrate set PrSS-360-75, JPT Peptide Technologies] | Cleaved |
| AAGVAPLS [B11, substrate peptide of the commercial peptide substrate set PrSS-360-75, JPT Peptide Technologies] | Uncleaved |
| RDAQAHPG [C23, substrate peptide of the commercial peptide substrate set PrSS-360-75, JPT Peptide Technologies] | Uncleaved |
| WQGGRRKF [A01, substrate peptide of the commercial peptide substrate set PrSS-360-75, JPT Peptide Technologies] | Uncleaved |
| NGLRADPM [H17, substrate peptide of the commercial peptide substrate set PrSS-360-75, JPT Peptide Technologies] | Cleaved |
| SAARPAPP [A10, substrate peptide of the commercial peptide substrate set PrSS-360-75, JPT Peptide Technologies] | Uncleaved |
| RLGREGVQ [E19, substrate peptide of the commercial peptide substrate set PrSS-360-75, JPT Peptide Technologies] | Uncleaved |
| RMRRYADA [A09, substrate peptide of the commercial peptide substrate set PrSS-360-75, JPT Peptide Technologies] | Cleaved |
| RRKRSTRE [G24, substrate peptide of the commercial peptide substrate set PrSS-360-75, JPT Peptide Technologies] | Cleaved |
| RNKRAVQG [H03, substrate peptide of the commercial peptide substrate set PrSS-360-75, JPT Peptide Technologies] | Cleaved |
| RVKRYRQS [B23, substrate peptide of the commercial peptide substrate set PrSS-360-75, JPT Peptide Technologies] | Cleaved |
| GPQGLLGA [C01, substrate peptide of the commercial peptide substrate set PrSS-360-75, JPT Peptide Technologies] | Uncleaved |
| SYRKVLGQ [A05, substrate peptide of the commercial peptide substrate set PrSS-360-75, JPT Peptide Technologies] | Uncleaved |
| PQRFGRNT [B20, substrate peptide of the commercial peptide substrate set PrSS-360-75, JPT Peptide Technologies] | Cleaved |
| RKKRSTKK [H01, substrate peptide of the commercial peptide substrate set PrSS-360-75, JPT Peptide Technologies] | Cleaved |
| ALAEAMKK [D06, substrate peptide of the commercial peptide substrate set PrSS-360-75, JPT Peptide Technologies] | Uncleaved |
| PQLHSTGG [J03, substrate peptide of the commercial peptide substrate set PrSS-360-75, JPT Peptide Technologies] | Uncleaved |
| RVLGLKAH [C16, substrate peptide of the commercial peptide substrate set PrSS-360-75, JPT Peptide Technologies] | Cleaved |

The remaining lines, values ahead:

| cleavage of substrate peptide by rCRISPA (rCRISP1) protease activity | Substance |
| --- | --- |
| Cleaved | RARRELAP [N05, substrate peptide of the commercial peptide substrate set PrSS-360-75, JPT Peptide Technologies] |
| Cleaved | EKQRIIGG [M02, substrate peptide of the commercial peptide substrate set PrSS-360-75, JPT Peptide Technologies] |
| Cleaved | AATRRQAV [O16, substrate peptide of the commercial peptide substrate set PrSS-360-75, JPT Peptide Technologies] |
| Uncleaved | GSQHIRAE [M09, substrate peptide of the commercial peptide substrate set PrSS-360-75, JPT Peptide Technologies] |
| Cleaved | GGVRGPRV [O22, substrate peptide of the commercial peptide substrate set PrSS-360-75, JPT Peptide Technologies] |
| Uncleaved | RSRREADL [M16, substrate peptide of the commercial peptide substrate set PrSS-360-75, JPT Peptide Technologies] |
| Uncleaved | GLQRALEI [M07, substrate peptide of the commercial peptide substrate set PrSS-360-75, JPT Peptide Technologies] |
| Uncleaved | FYRADQPR [N10, substrate peptide of the commercial peptide substrate set PrSS-360-75, JPT Peptide Technologies] |
| Cleaved | AKRAASQI [N12, substrate peptide of the commercial peptide substrate set PrSS-360-75, JPT Peptide Technologies] |
| Uncleaved | VHRDMAAR [M18, substrate peptide of the commercial peptide substrate set PrSS-360-75, JPT Peptide Technologies] |
| Uncleaved | VIPRSGGS [K11, substrate peptide of the commercial peptide substrate set PrSS-360-75, JPT Peptide Technologies] |
| Uncleaved | KTPRWGG [L16, substrate peptide of the commercial peptide substrate set PrSS-360-75, JPT Peptide Technologies] |
| Cleaved | KNVAMQKG [O23, substrate peptide of the commercial peptide substrate set PrSS-360-75, JPT Peptide Technologies] |

Source: US20060275803A1, “Rat and mouse members of the CRISP family of genes” (Wyeth, priority 2005, published 2006)
